According to article PMC2528193:
pKd: −log10 of the molar value. Values joined by “and” are separate entries in the source; they are usually repeats but may differ in a detail not shown here. Identical values can stand only once.

Tests used:
[1] = target: predicted processed PfHU (P. falciparum bacterial histone-like protein), recombinant (P. falciparum); test: SDS-resistant dimer on SDS-PAGE with anti-His Western blot
[2] = target: predicted processed PfHU (P. falciparum bacterial histone-like protein), recombinant (P. falciparum); test: cross-linking
[3] = test system: PfHUp (processed PfHU, bacterial histone-like protein) (Plasmodium falciparum); test: EMSA

Substance	stoichiometry N [1]	stoichiometry N [2]	pKd [3]
predicted processed PfHU (P. falciparum bacterial histone-like protein), recombinant (domain or fragment)	2	2 and 4	–
30 bp probe	–	–	7.20
